{
  "source": "patent WO2008073463A2",
  "about": "(dated 2008)",
  "binders": {"B1": {"name": "soluble human IL-13 receptor alpha2 with a human IgG1 Fc tail (sIL13Rα2-Fc) (Fc fusion, UniProt Q14627 27-343, looked up, not shown: a dimerising Fc or GST)", "chain": "DTEIKVNPPQDFEIVDPGYLGYLYLQWQPPLSLDHFKECTVEYELKYRNIGSETWKTIITKNLHYKDGFDLNKGIEAKIHTLLPWQCTNGSEVQSSWAETTYWISPQGIPETKVQDMDCVYYNWQYLLCSWKPGIGVLLDTNYNLFYWYEGLDHALQCVDYIKADGQNIGCRFPYLEASDYKDFYICVNGSSENKPIRSSYFTFQLQNIVKPLPPVYLTFTRESSCEIKLKWSIPLGPIPARCFDYEIEIREDDTTLVTATVENETYTLKTTNETRQLCFVVRSKVNIYCSDDGIWSEWSDKQCWEGEDLSKKTLLR"}, "B2": {"name": "humanized MJ 2-7 V2.11 IgG1 with a mutated CH2 domain (antibody, V domains shown)", "VH": "EVQLVESGGGLVQPGGSLRLSCAASGFNIKDTYIHWVRQAPGKGLEWIGRIDPANDNIKYDPKFQGRFTISADNAKNSAYLQMNSLRAEDTAVYYCARSEENWYDFFDYWGQGTLVTVSS", "VL": "DIQMTQSPSSLSASVGDRVTITCRSSQSIVHSNGNTYLEWYQQKPGKAPKLLIYKVSNRFSGVPSRFSGSGSGTDFTLTISSLQPEDFATYYCFQGSHIPYTFGGGTKVEIKR", "notes": "'QSΓVΉS' read as QSIVHS; also called huMJ 2-7 V2.11; hMJ2-7 V2-11"}, "B3": {"name": "humanized MJ 2-7 V2 (hMJ 2-7 VH V2 with hMJ 2-7 VL V2) (antibody, human IgG1, V domains shown)", "VH": "B2 VH with I48V, G49A, A72R, A79L", "VL": "B2 VL"}, "B4": {"name": "mouse monoclonal antibody C65 (antibody, V domains shown)", "VH": "QVQLKESGPGLVAPSQSLSITCTVSGFSLTGYGVNWVRQPPGKGLEWLGIIWGDGSTDYNSALKSRLIINKDNSKSQVFLKMNSLQTDDTARYFCARDKTFYYDGFYRGRMDYWGQGTSVTVSS", "VL": "DVQMIQSPSSLSASLGDIVTMTCQASQGTSINLNWFQQKPGKAPKLLIFGASNLEDGVPSRFSGSRYGTNFTLTISSLEDEDMATYFCLQHSYLPWTFGGGTKLEIK"}, "B5": {"name": "cynomolgus monkey IL-13 (NHP IL-13), recombinant (ligand)", "chain": "SPVPPSTALKELIEELVNITQNQKAPLCNGSMVWSINLTAGVYCAALESLINVSGCSAIEKTQRMLNGFCPHKVSAGQFSSLRVRDTKIEVAQFVKDLLVHLKKLFREGQFN", "notes": "also called non-human primate IL-13; cynomolgus IL-13"}, "B6": {"name": "mouse monoclonal antibody MJ 2-7 (antibody, mouse IgG1, V domains shown)", "VH": "EVQLQQSGAELVKPGASVKLSCTGSGFNIKDTYIHWVKQRPEQGLEWIGRIDPANDNIKYDPKFQGKATITADTSSNTAYLQLNSLTSEDTAVYYCARSEENWYDFFDYWGQGTTLTVSS", "VL": "DVLMTQTPLSLPVSLGDQASISCRSSQSIVHSNGNTYLEWYLQKPGQSPKLLIYKVSNRFSGVPDRFSGSGSGTDFTLKISRVEAEDLGVYYCFQGSHIPYTFGGGTKLEIK"}},
  "key": {"[1]": {"target": "native human IL-13 (crude preparation from activated human cord blood Th2 cells) (human, UniProt P35225 34-146)", "sequence (P35225 other isoform, or with tags, fused parts or gaps)": "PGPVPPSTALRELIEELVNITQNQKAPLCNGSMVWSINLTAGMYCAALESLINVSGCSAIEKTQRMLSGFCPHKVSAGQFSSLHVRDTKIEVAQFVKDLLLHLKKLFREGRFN", "test": "cell-based or functional assay"}, "[2]": {"target": "B5", "test": "SPR (BIACORE), Kd = kd / ka"}, "[3]": {"target": "B5", "test": "SPR (BIACORE), antibody captured on goat anti-human IgG Fc, NHP-IL-13 0.09-600 nM, 1:1 model, 22.5 C"}, "[4]": {"target": "B5", "test": "cell-based or functional assay"}, "[5]": {"target": "B1", "test": "not described"}},
  "note": "Changes are numbered by the printed parent chain.",
  "data": [
    {"binder": "B1", "values": [
      {"measurement": "IC50, STAT6 phosphorylation in HT-29 cells (0.3 ng/ml native human IL-13)", "setting": "[1]", "result": 0.33, "unit": "nM"}
    ]},
    {"binder": "B2", "values": [
      {"measurement": "Kd", "setting": "[2]", "result": 0.043, "unit": "nM"},
      {"measurement": "IC50, STAT6 phosphorylation in HT-29 cells (0.3 ng/ml native human IL-13)", "setting": "[1]", "result": 0.52, "unit": "nM"},
      {"measurement": "koff", "setting": "[3]", "result": 0.000889, "unit": "s⁻¹"},
      {"measurement": "kon", "setting": "[3]", "result": "2.05e+07", "unit": "M⁻¹ s⁻¹"}
    ]},
    {"binder": "B3", "values": [
      {"measurement": "concentration for half-maximal inhibition of native human IL-13 bioactivity, against murine MJ2-7", "setting": "[1]", "result": "~110 fold greater than murine MJ2-7"}
    ]},
    {"binder": "B4", "values": [
      {"measurement": "STAT6 phosphorylation in HT-29 cells (0.3 ng/ml native human IL-13)", "setting": "[1]", "result": "~20", "unit": "fold less active"},
      {"measurement": "monocyte CD23 expression (3 ng/ml NHP IL-13)", "setting": "[4]", "result": "~20 fold less active than MJ2-7 and sIL-13Rα2-Fc"}
    ]},
    {"binder": "B5", "values": [
      {"measurement": "binding result", "setting": "[5]", "result": "binds"}
    ]},
    {"binder": "B6", "values": [
      {"measurement": "IC50, STAT6 phosphorylation in HT-29 cells (0.3 ng/ml native human IL-13)", "setting": "[1]", "result": 0.48, "unit": "nM"},
      {"measurement": "IC50, inhibition of STAT6 phosphorylation (native human IL-13 at 1 ng/ml)", "setting": "[1]", "result": "~0.293", "unit": "nM"},
      {"measurement": "IC50, tenascin C production by BEAS-2B cells (3 ng/ml native human IL-13)", "setting": "[1]", "result": "~0.1", "unit": "nM"},
      {"measurement": "IC50, inhibition of CD23 expression (non-human primate IL-13 at 1 ng/ml)", "setting": "[4]", "result": "~0.242", "unit": "nM"}
    ]}
  ]
}
